Assay results as given in patent publication US20260109763A1 (DENALI THERAPEUTICS, published 2026).

B1: Anti-PILRA antibody clone 8 (antibody, V domains shown)
VH: QVQLVQSGAEVKKPGASVKVSCKASGYTFTGHYMHWVRQAPGQGLEWMGWINPNSGDTDYAQKFQGRVTMTRDTSISTAYMDLNRLRSDDTAVFYCAREGLDGDPFDYWGQGTLVTVSS
VL: EIMLTQTPLSSPVTLGQPASISCRSSQSLVHSDGNTYLSWLQQRPGQPPRLLIYNISNRFSGVPDRFSGRGAGTDFTLKISRVEAEDVGVYYCIQTTQFSTFGQGTKLEIK
B2: Anti-PILRA antibody clone 3 (antibody, V domains shown)
VH: EVQLVESGGGLVQPGRSLRLSCAASGFTFDDYAIHWVRQAPGKGLEWVSGMSWNSGSIGYGDSVKGRFTISRDNAKNSLYLQMNSLRAEDTAFYYCAKDKSIGAAGRFDCWGQGTLVTVSS
VL: not shown
B3: Anti-PILRA antibody clone 32 (antibody, V domains shown)
VH: EVQLVQSGAEVKKPGASVKVSCKASGYTFTEYYMYWVRQAPGQGLELIGRIDPEDGGTDYIEKFKNRVTLTADTSTSTAYLELSSLRSEDTAVYYCATTIRGTVFAFWGQGTLVTVSS
VL: DIQMTQSPSSLSASVGDRVTITCRPSEDIYNGLAWYQQKPGKSPKLLIYNANSLHTGVPSRFSGSGSGTDYTLTISSLQPEDFATYFCQQYYDYPLTFGQGTKVEIK
notes: Humanized
B4: Anti-PILRA antibody clone 34 (antibody, V domains shown)
VH: EVQLVQSGAEVKKPGASVKVSCKASGYTFTEYYMYWVRQAPGQGLELIGRIDPEDGGTDYVEKFKNRVTLTADTSTSTAYLELSSLRSEDTAVYYCASTIRGTVFVYWGQGTLVTVSS
VL: DIQMTQSPSSLSASVGDRVTITCRPSEDIYNGLAWYQQKPGKSPKLLIYNANSLHTGVPSRFSGSGSGTDYTLTISSLQPEDFATYFCQQYYDYPLTFGQGTKVEIK
notes: Humanized
B5: Anti-PILRA antibody clone 17 (antibody, V domains shown)
VH: EVQLVQSGAEVKKPGASVKVSCKASGYTFTEYYMYWVRQAPGQGLELIGRIDPEDGGTDYVEKFKNRVTLTADTSTSTAYLELSSLRSEDTAVYYCASTIRGTVFVYWGQGTLVTVSS
VL: DIQMTQSPSSLSASVGDRVTITCRASEDIFNGLAWYQQKPGKSPKLLIYNAKTLHTGVPSRFSGSGSGSDYTLTISSLQPEDFATYFCQQYYDYPLTFGQGTKVEIK
notes: Humanized
B6: Anti-PILRA antibody clone 16 (antibody, V domains shown)
VH: EVQLVQSGAEVKKPGASVKVSCKASGYTFTEYYMYWVRQAPGQGLELIGRIDPEDGGTDYVEKFKNRATITADTSTSTAYLELSSLRSEDTAVYYCASTIRGTVFVYWGQGTLVTVSS
VL: DIQMTQSPSSLSASVGDRVTITCRASEDIFNGLAWYQQKPGKSPKLLIYNAKTLHTGVPSRFSGSGSGSDYTLTISSLQPEDFATYFCQQYYDYPLTFGQGTKVEIK
notes: Humanized
B7: Anti-PILRA antibody clone 18 (antibody, V domains shown)
VH: EVQLVQSGAEVKKPGASVKVSCKASGYTFTEYYMYWVRQAPGQGLELIGRIDPEDGGTDYVEKFKNRVTITADTSTSTAYLELSSLRSEDTAVYFCASTIRGTVFVYWGQGTLVTVSS
VL: DIQMTQSPSSLSASVGDRVTITCRASEDIFNGLAWYQQKPGKSPKLLIYNAKTLHTGVPSRFSGSGSGSDYTLTISSLQPEDFATYFCQQYYDYPLTFGQGTKVEIK
notes: Humanized
B8: Anti-PILRA antibody clone 19 (antibody, V domains shown)
VH: EVQLVQSGAEVKKPGASVKVSCKASGYTFTEYYMYWVRQAPGQGLELIGRIDPEDGGTDYVEKFKNRATLTADTSTSTAYLELSSLRSEDTAVYFCASTIRGTVFVYWGQGTLVTVSS
VL: DIQMTQSPSSLSASVGDRVTITCRASEDIFNGLAWYQQKPGKSPKLLIYNAKTLHTGVPSRFSGSGSGSDYTLTISSLQPEDFATYFCQQYYDYPLTFGQGTKVEIK
notes: Humanized
B9: Anti-PILRA antibody clone 30 (antibody, V domains shown)
VH: EVQLVQSGAEVKKPGASVKVSCKASGYTFTEYYMYWVRQAPGQGLELIGRIDPEDGGTDYVEKFKNRVTLTADTSTSTAYLELSSLRSEDTAVYYCASTIRGTVFVYWGQGTLVTVSS
VL: DIQMTQSPSSLSASVGDRVTITCRASEDIFNGLAWYQQKPGKSPKLLIYNAKTLHTGVPSRFSGSGSGTDYTLTISSLQPEDFATYYCQQYYDYPLTFGQGTKVEIK
notes: Humanized
B10: Anti-PILRA antibody clone 26 (antibody, V domains shown)
VH: EVQLVQSGAEVKKPGASVKVSCKASGYTFTEYYMYWVRQAPGQGLELIGRIDPEDGGTDYVEKFKNRVTLTADTSTSTAYLELSSLRSEDTAVYYCASTIRGTVFVYWGQGTLVTVSS
VL: DIQMTQSPSSLSASVGDRVTITCRPSEDIYNGLAWYQQKPGKAPKLLIYNANSLHTGVPSRFSGSGSGTDYTLTISSLQPEDFATYFCQQYYDYPLTFGQGTKVEIK
notes: Humanized
B11: Anti-PILRA antibody clone 22 (antibody, V domains shown)
VH: EVQLVQSGAEVKKPGASVKVSCKASGYTFTEYYMYWVRQAPGQGLELIGRIDPEDGGTDYVEKFKNRVTLTADTSTSTAYLELSSLRSEDTAVYYCASTIRGTVFVYWGQGTLVTVSS
VL: DIQMTQSPSSLSASVGDRVTITCRPSEDIYNGLAWYQQKPGKAPKLLIYNANSLHTGVPSRFSGSGSGTDYTLTISSLQPEDFATYYCQQYYDYPLTFGQGTKVEIK
notes: Humanized
B12: Anti-PILRA antibody clone 27 (antibody, V domains shown)
VH: EVQLVQSGAEVKKPGASVKVSCKASGYTFTEYYMYWVRQAPGQGLELIGRIDPEDGGTDYVEKFKNRATLTADTSTSTAYLELSSLRSEDTAVYFCASTIRGTVFVYWGQGTLVTVSS
VL: DIQMTQSPSSLSASVGDRVTITCRPSEDIYNGLAWYQQKPGKAPKLLIYNANSLHTGVPSRFSGSGSGTDYTLTISSLQPEDFATYFCQQYYDYPLTFGQGTKVEIK
notes: Humanized
B13: Anti-PILRA antibody clone 14 (antibody, V domains shown)
VH: EVQLVQSGAEVKKPGASVKVSCKASGYTFTEYYMYWVRQAPGQGLELIGRIDPEDGGTDYIEKFKNRVTITADTSTSTAYLELSSLRSEDTAVYFCATTIRGTVFAFWGQGTLVTVSS
VL: DIQMTQSPSSLSASVGDRVTITCRASEDIFNGLAWYQQKPGKSPKLLIYNAKTLHTGVPSRFSGSGSGSDYTLTISSLQPEDFATYFCQQYYDYPLTFGQGTKVEIK
notes: Humanized
B14: Anti-PILRA antibody clone 20 (antibody, V domains shown)
VH: EVQLVQSGAEVKKPGASVKVSCKASGYTFTEYYMYWVRQAPGQGLELIGRIDPEDGGTDYIEKFKNRVTLTADTSTSTAYLELSSLRSEDTAVYYCATTIRGTVFAFWGQGTLVTVSS
VL: DIQMTQSPSSLSASVGDRVTITCRPSEDIYNGLAWYQQKPGKAPKLLIYNANSLHTGVPSRFSGSGSGTDYTLTISSLQPEDFATYYCQQYYDYPLTFGQGTKVEIK
notes: Humanized
B15: Anti-PILRA antibody clone 25 (antibody, V domains shown)
VH: EVQLVQSGAEVKKPGASVKVSCKASGYTFTEYYMYWVRQAPGQGLELIGRIDPEDGGTDYIEKFKNRSTLTADTSTSTAYLELSSLRSEDTAVYFCATTIRGTVFAFWGQGTLVTVSS
VL: DIQMTQSPSSLSASVGDRVTITCRPSEDIYNGLAWYQQKPGKAPKLLIYNANSLHTGVPSRFSGSGSGTDYTLTISSLQPEDFATYFCQQYYDYPLTFGQGTKVEIK
notes: Humanized
B16: Anti-PILRA antibody clone 33 (antibody, V domains shown)
VH: EVQLVQSGAEVKKPGASVKVSCKASGYTFTEYYMYWVRQAPGQGLELIGRIDPEDGGTDYIEKFKNRSTLTADTSTSTAYLELSSLRSEDTAVYFCATTIRGTVFAFWGQGTLVTVSS
VL: DIQMTQSPSSLSASVGDRVTITCRPSEDIYNGLAWYQQKPGKSPKLLIYNANSLHTGVPSRFSGSGSGTDYTLTISSLQPEDFATYFCQQYYDYPLTFGQGTKVEIK
notes: Humanized
B17: Anti-PILRA antibody clone 21 (antibody, V domains shown)
VH: EVQLVQSGAEVKKPGASVKVSCKASGYTFTEYYMYWVRQAPGQGLELIGRIDPEDGGTDYIEKFKNRSTLTADTSTSTAYLELSSLRSEDTAVYFCATTIRGTVFAFWGQGTLVTVSS
VL: DIQMTQSPSSLSASVGDRVTITCRPSEDIYNGLAWYQQKPGKAPKLLIYNANSLHTGVPSRFSGSGSGTDYTLTISSLQPEDFATYYCQQYYDYPLTFGQGTKVEIK
notes: Humanized
B18: Anti-PILRA antibody clone 31 (antibody, V domains shown)
VH: EVQLVQSGAEVKKPGASVKVSCKASGYTFTEYYMYWVRQAPGQGLELIGRIDPEDGGTDYVEKFKNRATLTADTSTSTAYLELSSLRSEDTAVYFCASTIRGTVFVYWGQGTLVTVSS
VL: DIQMTQSPSSLSASVGDRVTITCRASEDIFNGLAWYQQKPGKSPKLLIYNAKTLHTGVPSRFSGSGSGTDYTLTISSLQPEDFATYYCQQYYDYPLTFGQGTKVEIK
notes: Humanized
B19: Anti-PILRA antibody clone 29 (antibody, V domains shown)
VH: EVQLVQSGAEVKKPGASVKVSCKASGYTFTEYYMYWVRQAPGQGLELIGRIDPEDGGTDYIEKFKNRSTLTADTSTSTAYLELSSLRSEDTAVYFCATTIRGTVFAFWGQGTLVTVSS
VL: DIQMTQSPSSLSASVGDRVTITCRASEDIFNGLAWYQQKPGKSPKLLIYNAKTLHTGVPSRFSGSGSGTDYTLTISSLQPEDFATYYCQQYYDYPLTFGQGTKVEIK
notes: Humanized
B20: Anti-PILRA antibody clone 13 (antibody, V domains shown)
VH: EVQLVQSGAEVKKPGASVKVSCKASGYTFTEYYMYWVRQAPGQGLELIGRIDPEDGGTDYIEKFKNRVTLTADTSTSTAYLELSSLRSEDTAVYYCATTIRGTVFAFWGQGTLVTVSS
VL: DIQMTQSPSSLSASVGDRVTITCRASEDIFNGLAWYQQKPGKSPKLLIYNAKTLHTGVPSRFSGSGSGSDYTLTISSLQPEDFATYFCQQYYDYPLTFGQGTKVEIK
notes: Humanized

How the values were obtained:
[1] = molecular target: T1, human PILRB extracellular domain (recombinant) (human, UniProt Q9UKJ0 20-191); assay: SPR, Biacore 8K, recombinant ECD
T1 construct: also called hPILRB
Description: (§1) Antibodies were captured on Biacore™ Series S CM5 sensor chips immobilized with mouse anti-human Fab (human Fab capture kit from GE Healthcare) followed by injections of serial 3-fold dilutions of recombinant ECD reagents at a flow rate of 30 μL/min. Each sample was analyzed using a 3-minute association followed by a 10-minute dissociation. After each injection, the sensor chip was regenerated using a 5 0 mM glycine pH2.0 regeneration buffer. A 1:1 Languir model of simultaneous fitting of kₒₙ and koff was used for kinetics analysis.

[2] = molecular target: T2, human PILRA G78 extracellular domain (recombinant hPILRA ECD) (human, UniProt Q9UKJ1 20-197); assay: SPR, Biacore 8K; antibody captured via anti-human Fab, recombinant ECD injected; 1:1 fit;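 note: CM5 sensor chip, ECD analyte in threefold dilution series at 30 µL/min, 3 min association and 10 min dissociation, kon and koff fitted simultaneously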
T2 construct: also called hPILRA G78
Description: as §1

[3] = molecular target: T3, cynomolgus monkey PILRA extracellular domain (recombinant) (cynomolgus monkey); assay: as above
T3 construct: also called cynoPILRA; Cyno PILRA
Description: as §1

[4] = molecular target: T4, human PILRA G78 on cells (human, UniProt Q9UKJ1 20-303); assay: flow cytometry on HEK293 cells expressing hPILRA G78
T4 construct: wild-type iMicroglia are R78/G78 heterozygous (said in the assay field); also called hPILRA; hPILRA G78
Description: Parental HEK293 cells were labeled with NucBlue Live ReadyProbes Reagent for 30 mins. […] Antibody binding to the cells was detected by FACS and median fluorescence intensity (MFI) was derived from data analysis performed with the FLOJO software (FIGS. 1A-1C).

[5] = molecular target: T2, human PILRA G78 extracellular domain …; assay: SPR, Biacore 8K; hPILRA ECD; antibody with wild-type Fc
Description: as §1
Characterization for binding affinities of the humanized antibodies to hPILRA ECD were measured by SPR using a Biacore 8K instrument (Table 7).

T2 sequence (Q9UKJ1 20-197 R78G limits assumed): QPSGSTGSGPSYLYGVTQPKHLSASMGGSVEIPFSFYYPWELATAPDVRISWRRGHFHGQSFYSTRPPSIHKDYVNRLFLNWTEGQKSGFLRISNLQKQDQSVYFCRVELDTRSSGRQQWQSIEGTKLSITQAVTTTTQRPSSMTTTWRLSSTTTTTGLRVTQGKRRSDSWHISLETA
T3 sequence (chain, as listed by the source limits assumed): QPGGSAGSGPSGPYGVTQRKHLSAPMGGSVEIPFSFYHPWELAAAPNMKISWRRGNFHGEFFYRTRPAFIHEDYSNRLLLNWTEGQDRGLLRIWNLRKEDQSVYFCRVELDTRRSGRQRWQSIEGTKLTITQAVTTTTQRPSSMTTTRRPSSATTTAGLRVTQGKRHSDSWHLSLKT
T1 sequence (Q9UKJ0 20-191 limits assumed): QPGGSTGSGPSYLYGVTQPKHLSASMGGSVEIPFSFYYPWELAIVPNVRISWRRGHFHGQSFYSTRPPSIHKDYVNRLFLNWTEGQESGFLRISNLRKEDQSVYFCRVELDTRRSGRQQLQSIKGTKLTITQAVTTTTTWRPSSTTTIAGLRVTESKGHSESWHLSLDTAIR
T4 sequence (Q9UKJ1 20-303 R78G limits assumed): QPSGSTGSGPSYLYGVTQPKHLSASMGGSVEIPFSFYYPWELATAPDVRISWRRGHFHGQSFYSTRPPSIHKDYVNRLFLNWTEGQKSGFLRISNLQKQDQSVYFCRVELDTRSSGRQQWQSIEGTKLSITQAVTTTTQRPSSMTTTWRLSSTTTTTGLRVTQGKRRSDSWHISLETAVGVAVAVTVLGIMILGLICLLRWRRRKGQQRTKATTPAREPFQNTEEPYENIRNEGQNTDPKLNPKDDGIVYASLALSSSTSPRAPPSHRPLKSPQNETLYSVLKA

Binder | Kd [5] | further results
B1 | – | binding result [1]: no binding; Kd [2]: 11 nM; Kd [3]: 59 nM; EC50 [4]: 536 nM
B2 | – | binding result [1]: no binding; Kd [2]: 1.7 nM; Kd [3]: 3 nM; EC50 [4]: 14.1 nM
B3 | 2.8 nM | –
B4 | 1.8 nM | –
B5 | 1.29 nM | –
B6 | 11 nM | –
B7 | 7.53 nM | –
B8 | 2 nM | –
B9 | 0.878 nM | –
B10 | 0.511 nM | –
B11 | 0.515 nM | –
B12 | 0.536 nM | –
B13 | 1.63 nM | –
B14 | 1.73 nM | –
B15 | 0.794 nM | –
B16 | 2.04 nM | –
B17 | 0.667 nM | –
B18 | 0.915 nM | –
B19 | 1.28 nM | –
B20 | 0.655 nM | –
